Earlier results, collected in patent US20090098130A1, “GLUCAGON-LIKE PROTEIN-1 RECEPTOR (GLP-1R) AGONIST COMPOUNDS” (priority 2007, published 2009).

Settings: after incubation with β-diketone

| Molecule | enaminone absorbance (λmax=318 nm) |
| --- | --- |
| h38C2 IgG: humanized aldolase catalytic antibody h38c2 IgG1 (antibody, listed as Homo sapiens, V domains shown, (1)..(30) FR1; (1)..(23) FR1) VH: EVQLVESGGGLVQPGGSLRLSCAASGFTFSNYWMSWVRQSPEKGLEWVSEIRLRSDNYATHYAESVKGRFTISRDNSKNTLYLQMNSLRAEDTGIYYCKTYFYSFSYWGQGTLVTVSS VL: ELQMTQSPSSLSASVGDRVTITCRSSQSLLHTYGSPYLNWYLQKPGQSPKLLIYKVSNRFSGVPSRFSGSGSGTDFTLTISSLQPEDFAVYFCSQGTHLPYTFGGGTKVEIK | showed the characteristic enaminone absorbance |
| m38C2 IgG: mouse monoclonal aldolase antibody with a reactive lysine (antibody, listed as Mus musculus, V domains shown, (1)..(30) FR1; (1)..(23) FR1) VH: EVKLVESGGGLVQPGGTMKLSCEISGLTFRNYWMSWVRQSPEKGLEWVAEIRLRSDNYATHYAESVKGKFTISRDDSKSRLYLQMNSLRTEDTGIYYCKTYFYSFSYWGQGTLVTVSA VL: DVVMTQTPLSLPVRLGDQASISCRSSQSLLHTYGSPYLNWYLQKPGQSPKLLIYKVSNRFSGVPDRFSGSGSGTDFTLRISRVEAEDLGVYFCSQGTHLPYTFGGGTKLEIK | showed the characteristic enaminone absorbance |
